From US11732029B2, “Methods and compositions for the treatment of wounds” (The University of Chicago, priority 2017, dated 2023) come the findings set out here.

pKd: −log10 of the molar value. No end group written: not given here.

Series [1] concerns the target T1, PlGF-2 (Homo sapiens, UniProt P49763).
T1 sequence (P49763 19-170 isoform P49763-3 limits assumed): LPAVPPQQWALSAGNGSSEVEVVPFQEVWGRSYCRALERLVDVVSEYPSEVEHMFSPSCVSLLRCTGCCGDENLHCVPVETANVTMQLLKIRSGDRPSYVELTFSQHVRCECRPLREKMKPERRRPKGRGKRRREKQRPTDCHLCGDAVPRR
Briefly: Surface plasmon resonance, laminin against GF. The note with it: SPR; laminin protein immobilized on chip, GF flowed; Langmuir binding kinetics. The arrangement: All GFs and chemokines were purchased in their mature forms; purchased PeproTech; host or cells: Escherichia coli. As for the experimental part: (§1) SPR analysis was performed as described previously^2. In brief, measurements were made with a Biacore 3000 SPR system (GE Healthcare). Laminin-521 or laminin α32928-3150 was immobilized via amine coupling on a C1 chip (GE Healthcare) for ˜2000 or ˜1000 resonance units (RU), respectively, according to the manufacturer's instructions. VEGF-A165, PDGF-BB, or PlGF-2 was flowed at increasing concentrations in the running buffer at 20 μL/min. The sensor chip was regenerated with 50 mM NaOH for every cycle. Specific bindings of GFs to laminin were calculated by comparison to a non-functionalized channel used as a reference. Experimental results were fitted with Langmuir binding kinetics using BIAevaluation software (GE Healthcare).

Series [2] concerns the target T2, VEGF-A165 (Homo sapiens, UniProt P15692).
T2 construct: All growth factors (GFs) and chemokines were purchased in their mature forms; purchased PeproTech; host or cells: Escherichia coli
T2 sequence (P15692 27-191 isoform P15692-4 limits assumed): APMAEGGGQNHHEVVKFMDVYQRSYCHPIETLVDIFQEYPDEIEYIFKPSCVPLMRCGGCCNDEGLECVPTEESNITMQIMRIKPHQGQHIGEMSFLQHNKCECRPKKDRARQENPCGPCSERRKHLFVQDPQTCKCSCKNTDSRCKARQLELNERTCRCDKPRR
Briefly: Surface plasmon resonance, laminin against GF. The conditions noted are these: SPR; laminin protein immobilized on chip, GF flowed; Langmuir binding kinetics. How it is done:
as §1

The target of series [3] is T3, PDGF-BB (Homo sapiens, UniProt P01127).
T3 construct: All growth factors (GFs) and chemokines were purchased in their mature forms; purchased PeproTech; host or cells: Escherichia coli
Nature of the series: Surface plasmon resonance, laminin against GF. The conditions noted are these: SPR; laminin protein immobilized on chip, GF flowed; Langmuir binding kinetics. As for the experimental part:
as §1

The target of series [4] is vWF binding to the GFs (Homo sapiens, UniProt P04275). Nature of the series: Inhibition of vWF-GF binding by heparin (ELISA). The note with it: excess (10 μM) heparin; VEGF-A165, PlGF-2 or FGF-2. How it is done:
ELISA plates (med-binding) were coated with 10 μg/mL vWF. Then, wells were blocked with 2% BSA-containing PBS-T and further incubated with 1 μg/mL each of VEGF-A, PlGF-2, or FGF-2 for 60 min at room temperature (RT) with 10 μM heparin. Next, the wells were incubated with biotinylated anti-VEGF-A, anti-PlGF, or anti-FGF-2 antibodies (R & D Systems). The antibodies were detected by streptavidin-HRP (R & D Systems). Color development and the absorbance measurement were done as described above.

Series [5] concerns GF binding to laminin. Briefly: Inhibition of laminin-GF binding by heparin (ELISA). The conditions noted are these: heparin added in excess (10 μM); VEGF-A165, PlGF-2 or FGF-2. As for the experimental part:
ELISA plates (med-binding) were coated with 10 μg/mL laminin isoforms (−111, −211, −221, −411, −421, −511, and −521) in PBS for 2 hrs at 37° C. Then, wells were blocked with 2% BSA-containing PBS-T and further incubated with 1 μg/mL each of VEGF-A165, PlGF-2, or FGF-2 for 60 min at RT with 10 μM heparin. Next, the wells were incubated with biotinylated anti-VEGF, anti-PlGF, or anti-FGF-2 antibodies (R&D Systems). The antibodies were detected by streptavidin-HRP (R&D Systems).

The target of series [6] is T1, PlGF-2. Briefly: Recombinant GF binding to the vWF recombinant protein and A1 HBD peptide (ELISA). The arrangement: All growth factors (GFs) and chemokines were purchased in their mature forms; purchased PeproTech; host or cells: Escherichia coli. The note with it: plate coated with vWF protein, A1 domain or HBD peptide, 1 μg/mL GF. How it is done: (§2) ELISA tests were performed as described above. In brief, ELISA plates were coated with 1 μg/mL of FL-vWF (WT or R1341Q), 1 μg/mL of vWF A1 recombinant protein (U-Protein Express) or 1 μg/mL of vWF A1 HBD peptide (sequence […], (SEQ ID NO:50) chemically synthesized by Genscript) at 37° C. overnight. After blocking with 2% BSA solution containing PBS-T, 1 μg/mL of the recombinant human proteins VEGF-A121, VEGF-A165, PlGF-1, PlGF-2, PDGF-BB, FGF-2, CXCL-12α and CXCL-12γ were added. 1 μg/mL of BSA served as non-binding protein control. Bound GF or chemokine was detected with biotinylated antibodies for human VEGF-A, PlGF, PDGF-BB, FGF-2, or CXCL-12 (R & D Systems). The antibodies were detected by streptavidin-HRP (R & D Systems). Color development and the absorbance measurement were done as described above.

Series [7] has as its target FGF-2 (Homo sapiens, UniProt P09038). Described as above. The conditions noted are these: plate coated with vWF protein, A1 domain or HBD peptide, 1 μg/mL GF. Set-up: All growth factors (GFs) and chemokines were purchased in their mature forms; purchased PeproTech; host or cells: Escherichia coli. As for the experimental part:
as §2

Series [8] concerns the target T4, VEGF-A145 (Homo sapiens, UniProt P15692).
T4 construct: All GFs and chemokines were purchased in their mature forms; purchased R & D Systems
T4 sequence (P15692 27-171 isoform P15692-6 limits assumed): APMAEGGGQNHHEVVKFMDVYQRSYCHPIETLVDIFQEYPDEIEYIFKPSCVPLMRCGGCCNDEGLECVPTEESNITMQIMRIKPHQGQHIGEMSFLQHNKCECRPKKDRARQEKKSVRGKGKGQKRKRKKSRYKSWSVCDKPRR
Briefly: vWF binding to recombinant VEGF-A isoforms (ELISA). The conditions noted are these: plate coated with 50 nM vWF domains, 1 μg/mL VEGF-A, vs BSA. As for the experimental part:
(§3) ELISA was performed as previously reported1. In brief, ELISA plates (med binding: Greiner Bio-One) were coated with 50 nM BSA (GE Healthcare), pro-peptide containing recombinant vWF (Sino Biological), plasma-derived vWF (EMD Millipore), recombinant human vWF A1 domain (U-Protein Express), recombinant human vWF A2 domain (R & D systems), recombinant human vWF A3 domain (U-Protein Express), vWF A1 HBD peptide or scrambled/mutated HBD peptide (all peptides were synthesized by Genscript). After blocking with 2% BSA solution containing PBS-T, 1 μg/mL of recombinant human VEGF-A121 (PeproTech), recombinant human VEGF-A145 (R & D Systems), or recombinant human VEGF-A165 (PeproTech) was added. Bound VEGF-A was detected with 1 μg/mL of mouse anti-human VEGF-A antibody (clone: 26503, R & D systems). After 60 min of incubation, horseradish peroxidase (HRP) conjugated goat anti-mouse antibody (1:2000 dilution, Dako) was added and incubated for another 60 min. Color development and the absorbance measurement were done as described above.

Series [9] deals with T2, VEGF-A165. Nature of the series: vWF binding to recombinant VEGF-A isoforms (ELISA). The conditions noted are these: plate coated with 50 nM vWF domains, 1 μg/mL VEGF-A, vs BSA. As for the experimental part: as §3
For series [10], the target named is T2, VEGF-A165. Briefly: Recombinant GF binding to the vWF recombinant protein and A1 HBD peptide (ELISA). The note with it: plate coated with vWF protein, A1 domain or HBD peptide, 1 μg/mL GF. How it is done:
as §2

Series [11] deals with T5, CXCL-12γ (Homo sapiens, UniProt P48061).
T5 construct: All GFs and chemokines were purchased in their mature forms; purchased R & D Systems; host or cells: Escherichia coli
Described as above. The note with it: plate coated with vWF protein, A1 domain or HBD peptide, 1 μg/mL GF. How it is done:
as §2

In series [12] the target is T3, PDGF-BB. The series is described as above. The conditions noted are these: plate coated with vWF protein, A1 domain or HBD peptide, 1 μg/mL GF. How it is done:
as §2

Series [13] concerns the target T6, CXCL-12α (Homo sapiens, UniProt P48061).
T6 construct: All GFs and chemokines were purchased in their mature forms; purchased PeproTech; host or cells: Escherichia coli
Nature of the series: Laminin binding to recombinant GFs (ELISA). The note with it: ELISA A450 nm; signals greater than 0.1 = binding. As for the experimental part:
(§4) ELISA tests were performed as previously reported. In brief, ELISA plates (med-binding, Greiner Bio-One) were coated with 50 nM GFs at 37° C. for more than 2 hrs. After blocking with 2% BSA solution containing PBS and 0.05% Tween 20 (PBS-T), 10 nM recombinant human laminin isoforms (−111, −211, −332, −411, −421, −511, and −521) (>95% purity tested by SDS-PAGE, BioLamina) were added. Bound laminin was detected with rabbit anti-human laminin γ1 chain antibody (1:1000 dilution, Assay biotech) or rabbit anti-human laminin α3 chain antibody (1:1000 dilution, Assay biotech). After incubation with biotinylated anti-rabbit antibody for 60 min at room temperature (RT), HRP conjugated streptavidin (Jackson ImmunoResearch) was added. After 60 min of incubation at RT, 50 μL TMB substrate (Sigma-Aldrich) was added. The reactions were stopped by adding 25 μL of 2N H2SO4. Subsequently, the absorbance at 450 nm was measured with a reference of 570 nm.

The target in series [14] is T7, CXCL-11 (Homo sapiens, UniProt O14625).
T7 construct: All growth factors (GFs) and chemokines were purchased in their mature forms; purchased PeproTech; host or cells: Escherichia coli
T7 sequence (O14625 22-94): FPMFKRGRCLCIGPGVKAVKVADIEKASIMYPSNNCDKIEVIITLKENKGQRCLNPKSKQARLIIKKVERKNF
Briefly: Laminin binding to recombinant GFs (ELISA). The note with it: ELISA A450 nm; signals greater than 0.1 = binding. As for the experimental part:
as §4

Series [15] relates to full-thickness back-skin wounds in db/db diabetic mice. Nature of the series: Retention of VEGF-A165 at the wound site. The series is classed as in vivo. The conditions noted are these: db/db mouse; fibrin matrix with 200 ng VEGF-A165/wound; 3 days after treatment; vs without peptide. As for the experimental part: Retention assays were performed as previously reported^1. Briefly, C57BLKS/J-m/Lepr db (db/db) mice ages 10 to 11 wks were used. Their backs were shaved and four full-thickness punch-biopsy wounds (6 mm in diameter) were created in each mouse. Directly after, fibrin matrices [80 μL total, fibrinogen (10 mg/mL), 2 U/mL human thrombin, 4 U/mL factor XIII, 5 mM calcium chloride, 2 μM α2PI1-8-α33043-3067, 200 ng of recombinant human VEGF-A165] were polymerized on the wounds. To avoid drying of the matrices, the wounds were covered with non-adhering dressing (Adaptic, Johnson & Johnson), and then with adhesive film dressing (Hydrofilm, Hartmann). After 3 or 6 days, mice were sacrificed. The wounds were punched again, in order to recover the fibrinous matrices. Moreover, the tissue surrounding the wounds (2 mm beyond the wound margin) was removed. The tissue was transferred in 0.9 mL of tissue T-PER Tissue Protein Extraction Reagent (Thermo Scientific) containing 1 mg/mL of collagenase IV (Sigma-Aldrich), and homogenized with a tissue homogenizer. […] Recombinant human VEGF-A165 remaining in the fibrinous matrix and in the tissue surrounding the wound were quantified by ELISA (DuoSet, R&D Systems), using 200 ng of recombinant human VEGF-A165 as 100%.

T3 sequence (P01127 82-190 limits assumed): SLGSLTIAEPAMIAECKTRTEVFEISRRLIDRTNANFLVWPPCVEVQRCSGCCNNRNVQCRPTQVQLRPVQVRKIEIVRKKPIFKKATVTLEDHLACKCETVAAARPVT
Chain of vWF binding to the GFs (P04275 764-2813 limits assumed): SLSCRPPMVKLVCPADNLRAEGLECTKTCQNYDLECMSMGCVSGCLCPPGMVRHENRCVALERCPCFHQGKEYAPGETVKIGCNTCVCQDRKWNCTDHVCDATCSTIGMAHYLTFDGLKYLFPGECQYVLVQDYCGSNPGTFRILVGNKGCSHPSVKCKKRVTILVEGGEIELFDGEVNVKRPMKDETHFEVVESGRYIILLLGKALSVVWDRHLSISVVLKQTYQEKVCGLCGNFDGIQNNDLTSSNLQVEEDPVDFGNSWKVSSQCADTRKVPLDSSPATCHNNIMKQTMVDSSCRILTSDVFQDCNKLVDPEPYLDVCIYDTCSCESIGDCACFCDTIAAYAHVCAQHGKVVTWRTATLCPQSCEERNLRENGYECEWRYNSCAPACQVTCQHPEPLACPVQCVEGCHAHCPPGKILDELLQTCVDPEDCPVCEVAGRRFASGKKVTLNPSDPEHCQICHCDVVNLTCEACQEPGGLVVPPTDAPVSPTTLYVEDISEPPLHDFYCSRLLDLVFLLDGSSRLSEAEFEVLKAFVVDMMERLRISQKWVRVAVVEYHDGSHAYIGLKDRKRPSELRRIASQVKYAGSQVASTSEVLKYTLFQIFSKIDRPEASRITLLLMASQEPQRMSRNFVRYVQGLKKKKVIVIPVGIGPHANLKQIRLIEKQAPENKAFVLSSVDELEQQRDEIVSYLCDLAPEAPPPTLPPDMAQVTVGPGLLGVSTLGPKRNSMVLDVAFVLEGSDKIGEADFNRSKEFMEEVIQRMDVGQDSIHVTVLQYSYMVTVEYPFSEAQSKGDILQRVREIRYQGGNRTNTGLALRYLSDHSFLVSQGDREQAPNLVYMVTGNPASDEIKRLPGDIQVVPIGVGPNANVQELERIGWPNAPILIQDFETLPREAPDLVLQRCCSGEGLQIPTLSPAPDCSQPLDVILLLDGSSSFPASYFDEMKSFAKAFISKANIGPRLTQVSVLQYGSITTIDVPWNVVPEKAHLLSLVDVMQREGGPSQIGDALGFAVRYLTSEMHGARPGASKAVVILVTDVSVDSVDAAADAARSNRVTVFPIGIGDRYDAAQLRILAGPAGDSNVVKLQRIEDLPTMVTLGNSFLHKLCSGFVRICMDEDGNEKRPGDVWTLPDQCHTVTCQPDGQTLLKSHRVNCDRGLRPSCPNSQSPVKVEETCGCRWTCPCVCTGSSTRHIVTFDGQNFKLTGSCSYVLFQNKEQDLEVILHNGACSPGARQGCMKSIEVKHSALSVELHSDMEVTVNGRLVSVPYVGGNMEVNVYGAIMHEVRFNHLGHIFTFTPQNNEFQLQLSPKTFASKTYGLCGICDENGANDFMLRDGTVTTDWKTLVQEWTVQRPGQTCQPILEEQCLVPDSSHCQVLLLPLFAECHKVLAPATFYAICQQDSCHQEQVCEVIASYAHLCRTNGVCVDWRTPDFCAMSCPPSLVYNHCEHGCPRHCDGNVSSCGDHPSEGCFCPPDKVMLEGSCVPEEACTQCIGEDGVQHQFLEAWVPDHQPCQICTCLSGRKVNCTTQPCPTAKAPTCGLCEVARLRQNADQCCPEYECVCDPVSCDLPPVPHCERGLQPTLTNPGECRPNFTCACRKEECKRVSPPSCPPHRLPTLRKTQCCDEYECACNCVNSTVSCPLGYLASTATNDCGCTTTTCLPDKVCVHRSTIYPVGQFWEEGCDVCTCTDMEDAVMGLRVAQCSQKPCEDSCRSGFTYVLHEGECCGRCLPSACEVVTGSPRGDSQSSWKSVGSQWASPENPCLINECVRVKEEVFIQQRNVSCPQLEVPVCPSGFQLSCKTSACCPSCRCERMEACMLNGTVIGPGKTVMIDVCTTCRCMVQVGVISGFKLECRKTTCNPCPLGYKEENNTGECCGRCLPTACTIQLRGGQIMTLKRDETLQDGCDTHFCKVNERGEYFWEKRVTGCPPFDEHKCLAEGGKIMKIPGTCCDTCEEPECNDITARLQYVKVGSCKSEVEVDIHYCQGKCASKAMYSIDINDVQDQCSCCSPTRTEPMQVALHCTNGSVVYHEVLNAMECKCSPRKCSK
T6 sequence (P48061 22-89 limits assumed): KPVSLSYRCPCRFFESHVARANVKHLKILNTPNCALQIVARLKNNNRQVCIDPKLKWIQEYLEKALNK
T5 sequence (P48061 22-119 isoform P48061-3): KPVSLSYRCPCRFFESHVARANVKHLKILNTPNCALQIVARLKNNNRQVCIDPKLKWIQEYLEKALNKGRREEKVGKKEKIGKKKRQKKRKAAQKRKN
Chain of FGF-2 (P09038 143-288): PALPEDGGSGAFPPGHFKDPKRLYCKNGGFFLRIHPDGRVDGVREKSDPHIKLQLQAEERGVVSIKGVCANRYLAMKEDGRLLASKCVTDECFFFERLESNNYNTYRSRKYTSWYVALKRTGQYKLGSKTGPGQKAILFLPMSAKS

“laminin-521: recombinant human full-length laminin isoform -521 (BioLamina)”: the pKd in [1] was 7.89; in series [2] it was 8.24; in [3], 7.62.

As for heparin, in series [4], the “inhibition of vWF binding to the GFs” value is recorded as “inhibited vWF binding to the GFs”. The “inhibition of GF binding to laminin” value in [5] is “inhibited GF binding to laminin”.

Regarding “recombinant A1 domain: recombinant human vWF A1 domain (U-Protein Express)”, the “binding to PlGF-2” value in series [6] was “strong binding”. In [7], the “binding to FGF-2” value was “strong binding”. Also, in series [8], the “binding to VEGF-A145” value is “bound”. In addition, the “binding to VEGF-A165” value in series [9] is “bound”; in series [10], “strong binding”. Further, the “binding to CXCL-12γ” value in series [11] is “strong binding”. The “binding to PDGF-BB” value in series [12] is on record as “strong binding”.

“laminin-332: recombinant human full-length laminin isoform -332 (BioLamina)”: the “binding of laminin to CXCL-12a” value in series [13] is listed as “bound weakly”. In addition, the “binding of laminin to CXCL-11” value in series [14] is on record as “bound weakly”.

On to “NQEQVSPLRLVFALGTDGKKLRIKSKEKCNDGK [α2PI1-8-α33043-3067]”, for which the “amount of VEGF-A165 remaining in the wounds” value in series [15] is “significantly enhanced”.
